1 molecule from paper PMC9668737, “Herpes simplex virus 1 protein pUL21 alters ceramide metabolism by activating the interorganelle transport protein CERT” (The Journal of Biological Chemistry, 2022) can be followed below.

Where a chain is given by its changes, count along the chain named.

Assay [1] has as its target T1, StrepII-CERT^P (UniProt Q9Y5P4-2 1-598, hyperphosphorylated (sites not given)).
T1 sequence (looked up): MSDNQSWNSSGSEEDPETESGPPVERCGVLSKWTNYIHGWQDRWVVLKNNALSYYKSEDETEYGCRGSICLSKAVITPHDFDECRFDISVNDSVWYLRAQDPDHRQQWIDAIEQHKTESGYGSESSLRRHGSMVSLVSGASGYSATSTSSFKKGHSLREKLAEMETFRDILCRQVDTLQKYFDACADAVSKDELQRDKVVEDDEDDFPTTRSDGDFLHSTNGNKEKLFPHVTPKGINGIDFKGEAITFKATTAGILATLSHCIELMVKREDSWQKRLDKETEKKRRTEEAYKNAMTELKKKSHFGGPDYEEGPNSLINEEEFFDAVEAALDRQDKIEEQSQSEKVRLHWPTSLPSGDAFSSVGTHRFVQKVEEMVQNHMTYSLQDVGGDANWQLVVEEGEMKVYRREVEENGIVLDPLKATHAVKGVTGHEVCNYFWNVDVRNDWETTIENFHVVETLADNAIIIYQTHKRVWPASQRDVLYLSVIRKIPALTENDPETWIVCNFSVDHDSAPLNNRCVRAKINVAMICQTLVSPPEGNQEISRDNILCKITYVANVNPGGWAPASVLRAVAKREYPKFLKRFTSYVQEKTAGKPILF
Nature of the assay: cell-based or functional assay.

In assay [2] the target is T2, StrepII-CERTL^S132A (human, UniProt Q9Y5P4-1 1-624, S132A, hypophosphorylated).
T2 construct: human CERTL, UniProt Q9Y5P4-1, synthetic gene, S132A; Trimer by SEC-MALS (observed 199.2 kDa); also called constitutively hypophosphorylated form of CERTL; source: Freestyle 293F, stably transfected, doxycycline-induced, purified (StrepTrap HP, Superose 6 SEC); not shown: StrepII, N-terminal, kept
T2 sequence (looked up): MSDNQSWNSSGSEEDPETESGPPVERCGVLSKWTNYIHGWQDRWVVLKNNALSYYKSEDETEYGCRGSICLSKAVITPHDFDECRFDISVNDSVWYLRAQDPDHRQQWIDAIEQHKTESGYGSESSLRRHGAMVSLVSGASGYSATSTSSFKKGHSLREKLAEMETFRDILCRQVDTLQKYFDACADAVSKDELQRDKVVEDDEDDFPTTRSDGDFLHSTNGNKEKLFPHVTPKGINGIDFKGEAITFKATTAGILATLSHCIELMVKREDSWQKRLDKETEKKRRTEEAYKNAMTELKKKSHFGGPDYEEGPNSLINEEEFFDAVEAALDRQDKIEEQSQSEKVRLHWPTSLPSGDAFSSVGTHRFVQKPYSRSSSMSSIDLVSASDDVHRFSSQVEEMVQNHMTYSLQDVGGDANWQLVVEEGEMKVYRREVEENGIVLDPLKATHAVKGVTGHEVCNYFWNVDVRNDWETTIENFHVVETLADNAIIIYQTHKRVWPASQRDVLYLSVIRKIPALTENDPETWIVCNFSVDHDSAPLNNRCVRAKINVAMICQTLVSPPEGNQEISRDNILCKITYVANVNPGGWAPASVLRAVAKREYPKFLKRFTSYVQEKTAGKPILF
Nature of the assay: ITC; 25 °C; 20 mM Tris pH 8.5, 500 mM NaCl, 0.5 mM TCEP; CERTL forms in the syringe titrated into pUL21 forms in the cell; one-site binding model. Particulars: both partners purified.

Assay [3] concerns the target T3, StrepII-CERTL^P (hyperphosphorylated StrepII-tagged CERTL) (human, UniProt Q9Y5P4-1 1-624, hyperphosphorylated (sites not given)).
T3 construct: human CERTL, UniProt Q9Y5P4-1, synthetic gene; Trimer by SEC-MALS (observed 184.3 kDa, expected 215.7 kDa); not shown: StrepII, N-terminal, kept
T3 sequence (looked up): T2 sequence (looked up) with A132S
The description is as above. Particulars: both partners purified.

B1: pUL21-H6 (natural protein)
chain: MELSYATTMHYRDVVFYVTTDRNRAYFVCGGCVYSVGRPCASQPGEIAKFGLVVRGTGPDDRVVANYVRSELRQRGLQDVRPIGEDEVFLDSVCLLNPNVSSELDVINTNDVEVLDECLAEYCTSLRTSPGVLISGLRVRAQDRIIELFEHPTIVNVSSHFVYTPSPYVFALAQAHLPRLPSSLEALVSGLFDGIPAPRQPLDAHNPRTDVVITGRRAPRPIAGSGAGSGGAGAKRATVSEFVQVKHIDRVGPAGVSPAPPPNNTDSSSLVPGAQDSAPPGPTLRELWWVFYAADRALEEPRADSGLTREEVRAVRGFREQAWKLFGSAGAPRAFIGAALGLSPLQKLAVYYYIIHRERRLSPFPALVRLVGRYTQRHGLYVPRPDDPVLADAINGLFRDALAAGTTAEQLLMFDLLPPKDVPVGSDVQADSTALLRFIESQRLAVPGGVISPEHVAYLGAFLSVLYAGRGRMSAATHTARLTGVTSLVLAVGDVDRLSAFDRGAAGAASRTRAAGYLDVLLTVRLARSQHGQSV
notes: HSV-1 pUL21, UniProt F8RG07; some paragraphs print H6-pUL21; also called H6-pUL21; WT pUL21; source: E. coli T7 Express lysY/Iq, purified (Ni-NTA, SEC); not shown: His6, C-terminal, kept
Take B1: the “EC50 of pUL21-H6 (62.5 nM to 4 μM) for accelerating GST-PP1-mediated dephosphorylation of 0.5 μM CERT^P in vitro, all proteins purified, 25 nM GST-PP1γ, 30 min at 30 °C” value in assay [1] amounted to 0.491 μM. The equilibrium dissociation constant (Kd) in assay [2] stood at 642 nM; in assay [3], 773 nM.
